According to patent publication US20110239327A1, “Nematicidal Effects of Cysteine Proteinases and Methods of Use Thereof to Treat Nematode Infestation” (priority 2007, published 2011):

Assays:
[1] = test system: Heterorhabditis megidis; experiment: In vitro effect on the beneficial nematode Heterorhabditis megidis; type: cell-based
Description: (§1) Eggs of M. incognita race 1 from North Carolina State University, USA were collected from tomato-infected roots grown in a glasshouse at 23° C. in a 16:8 h light-dark regime. Eggs were extracted using 1% hypochlorite (NaClO) solution (Hussey and Barker, 1973) or by picking egg masses from tomato-infected roots. Juveniles (J2) were hatched from the eggs and egg masses in water. Heterodera glycines eggs were obtained from soil samples stored in Rothamsted-Research. Second stage juveniles (J2) were hatched from the eggs in water after 10 days. Pratylenchus penetrans were a gift from Dr. Deeren Anne-Marie from the Institute for Agricultural and Fisheries Research, Merelbeke, Belgium. The beneficial nematodes Steinernema feltiae and Heterorhabditis megidis were a gift from Dr. Paul Williams from Becker Underwood.
(§2) Control wells were set up which contained J2s and distilled water with 16 mM L-cysteine. Each enzyme concentration and the controls were set up in duplicate (i.e. n=2). The actual number of active J2s per well was counted with the aid of an Olympus inverted microscope, prior to the addition of the enzymes, and then the J2s were incubated in the dark at room temperature for 2 hs, 16 hs, 24 hs or 40 hr. The number of live and dead J2s per well was counted after each enzyme incubation. The same procedure was followed when setting up further experiments to compare the effects of these enzymes with Heterodera glycines J2, Pratylenchus penetrans, Steinernema feltiae and Heterorhabditis megidis.
(§3) The beneficial nematodes Hetorhabditis megidis and Steinernema feltiae were incubated with dilutions of actinidin, bromelain and pappain from papaya latex (see concentrations used in table 3). These nematodes reacted differentially to these cysteine proteinases (Tables 4 and 5). […] S. feltiae were dead at all concentrations of actinidin tested. […] After 16 hs of observation the enzyme solutions were diluted with water (to half of the initial concentrations) however, no change in nematode movement was observed after 24 hs.

[2] = test system: Steinernema feltiae; experiment: In vitro effect on the beneficial nematode Steinernema feltiae; type: cell-based
Description: as §1, §2, §3

[3] = test system: M. incognita J2; experiment: In planta bioassay, two soil applications: nematode infection of tomato roots; type: in vivo, M. incognita on tomato plants; settings: two soil applications of enzyme (250 μM papain, 2.2 μM bromelain, 3.3 mM actinidin as printed), soil 16% organic matter, 11 days
Description: Oxamyl is supplied as 10% liquid Vydate. 125 μl of a solution 1000 fold dilution of 10% formulation (kindly supplied by DK from NIU) was applied to 5 g of the soil mixture with 16% organic matter, to give a partial nematicidal effect. Soil mixtures were wetted with PBS pH 7.2, 16 hrs prior nematode application of 1000 or 2000 M. incognita J2. Infected soil mixtures were treated with water (control) or 250 μM of active papain in 16 mM of L-cysteine or a combination of Vydate and 250 μM of active papain in 16 mM of L-cysteine. After 48 hs tomato seedlings one month old were added to the treated soils. After 11 days the roots were washed free of soil and chopped to approximately 2 mm pieces. The root pieces of each tomato plant was placed in muslin bags and stained with acid-fuchsin. The stained roots were examined under microscope and all the nematodes present in the roots were counted. […] After 48 hours tomato seedlings one month old were added to the treated soils and after 11 days post infection nematode development inside root tissues was assessed as described above.
The avermectins are macrocyclic lactones produced by the actinomycete Streptomyces avermitilis. […] After 48 hs tomato seedlings one month old were added to the treated soils and after 11 days post infection nematode development inside root tissues was assessed as described above. […]

[4] = enzyme concentration A (Table 3): actinidin 3.3 mM, bromelain 2.2 mM, papain 250 uM
[5] = enzyme concentration B: actinidin 1.7 mM, bromelain 1.1 mM, papain 125 uM
[6] = enzyme concentration C: actinidin 840 uM, bromelain 560 uM, papain 62.5 uM

B1: actinidin (protein, UniProt P00785 127-380, looked up)
Actinidain: LPSYVDWRSAGAVVDIKSQGECGGCWAFSAIATVEGINKIVTGVLISLSEQELIDCGRTQNTRGCNVGYITDGFQFIINNGGINTEENYPYTAQDGECNVDLQNEKYVTIDTYENVPYNNEWALQTAVTYQPVSVALDAAGDAFKHYSSGIFIGPCGTAIDHAVTIVGYGTEGGIDYWIVKNSWDTTWGEEGYMRILRNVGGAGTCGIATMPSYPVKYNNQNHPKSYSSLINPPAFSMSNDGPVGVDDGQRYSA
notes: cysteine proteinase from kiwi fruit (Actinidia chinensis), Merops C01.007
[1]; [4]
  nematode motility or behaviour: All paralysed
[1]; [5]
  nematode motility or behaviour: All paralysed
[1]; [6]
  nematode motility or behaviour: All paralysed
[1]; higher concentrations
  effect on H. megidis: paralysed
[1]; lower concentrations
  effect on H. megidis: only affected slightly
[2]; all concentrations of actinidin tested
  state of S. feltiae: dead
[2]; [4]
  nematode motility or behaviour: All dead
[2]; [5]
  nematode motility or behaviour: All dead
[2]; [6]
  nematode motility or behaviour: All dead
[2]; enzyme concentration D: actinidin 420 uM, bromelain 280 uM, papain 31 uM
  nematode motility or behaviour: All dead
[2]; enzyme concentration E: actinidin 210 uM, bromelain 140 uM, papain 15 uM
  nematode motility or behaviour: All dead
[2]; enzyme concentration F: actinidin 105 uM, bromelain 70 uM, papain 7.5 uM
  nematode motility or behaviour: All dead
[3]
  reduction of nematode infection of plants: 99%
